Experimental data published in publication PMC4749557.

Experiments:
[1] = target: 12 clones that bound to human PRDM14 (monobodies; the members other than Mb(S4) and Mb(S14) are not given); assay: yeast surface display; KD of monobody clones displayed on yeast for hPRDM14
[2] = target: Mb(hPRDM14_S14) displayed on the yeast surface; assay: as above
[3] = target: Mb(hPRDM14_S14) displayed on the yeast surface; assay: yeast surface display; monobodies on the yeast surface with 50 nM of hPRDM14 or a homologue

B1: human PRDM14 (residues 238–487) (domain or fragment)
chain: LPQTLDKDSLQLPEGLCLMQTVFGEVPHFGVFCSSFIAKGVRFGPFQGKVVNASEVKTYGDNSVMWEIFEDGHLSHFIDGKGGTGNWMSYVNCARFPKEQNLVAVQCQGHIFYESCKEIHQNQELLVWYGDCYEKFLDIPVSLQVTEPGKQPSGPSEESAEGYRCERCGKVFTYKYYRDKHLKYTPCVDKGDRKFPCSLCKRSFEKRDRLRIHILHVHEKHRPHKCSTCGKCFSQSSSLNKHMRVHSGDR
modifications: biotin (biotin-acceptor tag)
Kd [1]: < 100 nM | Kd [2]: < 100 nM | fold stronger binding than hPRDM6 and hPRDM12 [3]: > 5 fold
